Results: the Human Domainome abundance scans (Beltran et al. 2025)
± gives the uncertainty stated by the source.

B1: POU domain, class 5, transcription factor 1, residues 134 to 212; numbered along this chain, Q01860 (parent)
chain: EESQDIKALQKELEQFAKLLKQKRITLGYTQADVGLTLGVLFGKVFSQTTICRFEALQLSFKNMCKLRPLLQKWVEEAD

Variants of: B1
Assay: abundance fitness (aPCA) (normalised: wild type 0, dead -1); higher = more abundant; growth selection in yeast, the domain comes from the species named
Settings: Homo sapiens
With K21Q the abundance fitness was -0.2 ± 0.27. Variant K21V has an abundance fitness of -0.373 ± 0.28. K21G gave an abundance fitness of -0.707 ± 0.18. Work on K21R yielded an abundance fitness of -0.191 ± 0.12. K21A showed an abundance fitness of -0.392 ± 0.19. Work on K21P yielded an abundance fitness of -0.353 ± 0.3. K21S gave an abundance fitness of -0.189 ± 0.14. With T26K the abundance fitness was -0.414 ± 0.36. For T26E, the abundance fitness was 0.04 ± 0.27. T26A showed an abundance fitness of 0.202 ± 0.15. With T26Q the abundance fitness was -0.123 ± 0.39. Work on T26I yielded an abundance fitness of -0.313 ± 0.48. With T26R the abundance fitness was 0.129 ± 0.14. T26G gave an abundance fitness of 0.071 ± 0.12. In the case of T26S, the abundance fitness is reported as 0.329 ± 0.18. Variant T26V has an abundance fitness of -0.212 ± 0.19. Work on T26C yielded an abundance fitness of -0.059 ± 0.46. With T26N the abundance fitness was 0.268 ± 0.45. For T26M, the abundance fitness was -0.256 ± 0.42. T26L showed an abundance fitness of 0.004 ± 0.25. With V34I the abundance fitness was -0.031 ± 0.35. V34R showed an abundance fitness of -0.637 ± 0.2. Variant V34T has an abundance fitness of -0.797 ± 0.47. With V34P the abundance fitness was 0.101 ± 0.2. For V34L, the abundance fitness was -0.258 ± 0.21. For V34A, the abundance fitness was -0.742 ± 0.29. Variant V34G has an abundance fitness of -0.518 ± 0.17. V34Q showed an abundance fitness of -0.231 ± 0.32. Variant R24S has an abundance fitness of -0.361 ± 0.18. R24A gave an abundance fitness of -0.859 ± 0.47. Work on R24Q yielded an abundance fitness of -0.391 ± 0.44. In the case of R24V, the abundance fitness is reported as -0.068 ± 0.22. K23R gave an abundance fitness of 0.059 ± 0.12. K23A showed an abundance fitness of -0.608 ± 0.33. Variant K23Q has an abundance fitness of -0.256 ± 0.46. In the case of K23L, the abundance fitness is reported as -0.608 ± 0.37. For K23T, the abundance fitness was -0.384 ± 0.27. For V40N, the abundance fitness was 0.028 ± 0.28. With V40W the abundance fitness was -0.151 ± 0.14. Variant V40Y has an abundance fitness of -0.237 ± 0.35. Variant V40E has an abundance fitness of 0.1 ± 0.13. V40I showed an abundance fitness of 0.038 ± 0.27. Work on V40H yielded an abundance fitness of 0.12 ± 0.28. Variant V40M has an abundance fitness of -0.087 ± 0.13. Variant V40S has an abundance fitness of -0.026 ± 0.14. Work on V40D yielded an abundance fitness of -0.621 ± 0.44. V40C showed an abundance fitness of 0.354 ± 0.23. Work on V40L yielded an abundance fitness of -0.045 ± 0.13. With V40G the abundance fitness was -0.01 ± 0.076. For V40K, the abundance fitness was 0.198 ± 0.16. E12G showed an abundance fitness of -0.35 ± 0.084. Variant E12S has an abundance fitness of -0.094 ± 0.11. In the case of E12M, the abundance fitness is reported as -0.38 ± 0.24. With E12Q the abundance fitness was -0.185 ± 0.17. For E12H, the abundance fitness was -0.051 ± 0.4. For E12F, the abundance fitness was 0.341 ± 0.3. E12Y gave an abundance fitness of -0.4 ± 0.31. Variant E12V has an abundance fitness of -0.065 ± 0.097. E12T showed an abundance fitness of -0.405 ± 0.17. E12A showed an abundance fitness of -0.345 ± 0.14. For E12L, the abundance fitness was -0.312 ± 0.12. E12W showed an abundance fitness of -0.226 ± 0.1. E12D showed an abundance fitness of -0.357 ± 0.47. With E12I the abundance fitness was -0.112 ± 0.29. For E12K, the abundance fitness was 0.254 ± 0.12. E12P gave an abundance fitness of -0.473 ± 0.42. E12R gave an abundance fitness of -0.07 ± 0.071. L38V gave an abundance fitness of -0.52 ± 0.14. Variant L38A has an abundance fitness of -0.275 ± 0.14. With L38R the abundance fitness was -0.511 ± 0.13. L38C showed an abundance fitness of -0.029 ± 0.25. For L38S, the abundance fitness was -0.37 ± 0.17. In the case of L38K, the abundance fitness is reported as -0.603 ± 0.31. Work on L38P yielded an abundance fitness of -0.662 ± 0.41. With L38Q the abundance fitness was -0.482 ± 0.36. In the case of L38W, the abundance fitness is reported as -0.214 ± 0.26. For L38E, the abundance fitness was -0.701 ± 0.24. Variant L38G has an abundance fitness of -0.832 ± 0.18. In the case of L38H, the abundance fitness is reported as -0.313 ± 0.38. L38T showed an abundance fitness of -0.035 ± 0.23. Work on L38M yielded an abundance fitness of 0.185 ± 0.15. Q31Y gave an abundance fitness of 0.323 ± 0.27. Work on Q31L yielded an abundance fitness of -0.093 ± 0.2. In the case of Q31R, the abundance fitness is reported as -0.469 ± 0.14. Q31P showed an abundance fitness of 0.133 ± 0.14. For Q31K, the abundance fitness was -0.557 ± 0.34. For Q31A, the abundance fitness was -0.103 ± 0.11. In the case of Q31F, the abundance fitness is reported as -0.009 ± 0.29. Q31D showed an abundance fitness of -0.126 ± 0.33. Work on Q31C yielded an abundance fitness of 0.266 ± 0.18. For Q31E, the abundance fitness was 0.276 ± 0.1. With Q31H the abundance fitness was -0.108 ± 0.37. Variant Q31V has an abundance fitness of -0.679 ± 0.21. Variant Q31G has an abundance fitness of -0.402 ± 0.16. Q31W showed an abundance fitness of 0.078 ± 0.12. For G35A, the abundance fitness was 0.266 ± 0.092. Variant G35C has an abundance fitness of -0.64 ± 0.32. Work on G35S yielded an abundance fitness of 0.134 ± 0.14. G35T gave an abundance fitness of -0.697 ± 0.42. G35V showed an abundance fitness of -0.743 ± 0.3. G35R showed an abundance fitness of -0.32 ± 0.17. G35P showed an abundance fitness of -0.452 ± 0.29. G35Q showed an abundance fitness of -0.039 ± 0.25. With G35L the abundance fitness was -0.769 ± 0.46. L13P showed an abundance fitness of -0.306 ± 0.45. Variant L13Q has an abundance fitness of -0.641 ± 0.34. For L13R, the abundance fitness was -1.06 ± 0.35. L13N gave an abundance fitness of -0.252 ± 0.19. L13Y showed an abundance fitness of -0.527 ± 0.24. In the case of L13H, the abundance fitness is reported as -0.176 ± 0.19. In the case of L13V, the abundance fitness is reported as -0.228 ± 0.14. Variant L13C has an abundance fitness of -0.806 ± 0.31. Variant L13E has an abundance fitness of -0.484 ± 0.39. With L13M the abundance fitness was 0.021 ± 0.17. L13W gave an abundance fitness of -0.58 ± 0.19. With L13G the abundance fitness was -0.708 ± 0.23. In the case of L13F, the abundance fitness is reported as -0.149 ± 0.14. Work on L13S yielded an abundance fitness of -0.743 ± 0.25. Variant L13I has an abundance fitness of 0.099 ± 0.27. In the case of L13A, the abundance fitness is reported as -0.526 ± 0.22. D33M showed an abundance fitness of -0.497 ± 0.34. Work on D33E yielded an abundance fitness of -0.081 ± 0.13. D33V showed an abundance fitness of -1.19 ± 0.42. D33L gave an abundance fitness of -0.563 ± 0.23. D33P showed an abundance fitness of -0.227 ± 0.2. With D33T the abundance fitness was -1.08 ± 0.5. With D33F the abundance fitness was -0.407 ± 0.31. D33W showed an abundance fitness of -0.563 ± 0.23. Work on D33A yielded an abundance fitness of -0.594 ± 0.19. Variant D33K has an abundance fitness of 0.128 ± 0.2. D33S gave an abundance fitness of -0.572 ± 0.19. With D33G the abundance fitness was -0.283 ± 0.12. D33Q gave an abundance fitness of 0.236 ± 0.13. With K18S the abundance fitness was 0.192 ± 0.13. For K18W, the abundance fitness was -0.19 ± 0.18. K18M gave an abundance fitness of 0.052 ± 0.15. Work on K18L yielded an abundance fitness of -0.091 ± 0.11. K18H gave an abundance fitness of -0.523 ± 0.48. Variant K18R has an abundance fitness of -0.222 ± 0.099. K18F gave an abundance fitness of -0.268 ± 0.44. K18G showed an abundance fitness of -0.147 ± 0.12. K18T showed an abundance fitness of 0.074 ± 0.13. Work on K18A yielded an abundance fitness of 0.021 ± 0.11. Variant K18V has an abundance fitness of -0.466 ± 0.16. For K18E, the abundance fitness was -0.415 ± 0.2. With K18Q the abundance fitness was 0.029 ± 0.19. Y29S gave an abundance fitness of -0.717 ± 0.21. For Y29I, the abundance fitness was -0.771 ± 0.47. Work on Y29H yielded an abundance fitness of 0.148 ± 0.21. Work on Y29F yielded an abundance fitness of -0.761 ± 0.47. With Y29P the abundance fitness was -0.407 ± 0.24. For Y29R, the abundance fitness was -0.383 ± 0.096. With Y29M the abundance fitness was 0.18 ± 0.12. Work on Y29C yielded an abundance fitness of -0.64 ± 0.32. With Y29V the abundance fitness was -0.216 ± 0.089. Y29Q showed an abundance fitness of 0.068 ± 0.19. With Y29W the abundance fitness was -0.472 ± 0.18. For Y29A, the abundance fitness was -0.41 ± 0.13. For Y29D, the abundance fitness was -0.422 ± 0.31. Y29L showed an abundance fitness of -0.055 ± 0.094. Variant Y29G has an abundance fitness of -0.56 ± 0.14. A17P gave an abundance fitness of -0.357 ± 0.45. With A17R the abundance fitness was -0.768 ± 0.32. In the case of A17G, the abundance fitness is reported as 0.11 ± 0.13. A17V gave an abundance fitness of -0.145 ± 0.42. Work on A17T yielded an abundance fitness of 0.228 ± 0.38. For L20G, the abundance fitness was -0.801 ± 0.23.
